One block for each binder: values may come before it.
Tests used:
Experiment in all cases: holdup assay
Set-up in all cases: key: below the threshold = too weak to quantify, mostly under pKd 3.1 to 4
Settings in all cases: plain residues with an end cap or a label only (N-terminal biotin on a linker: ado-ado)
[1] = target: LAP2, Q96RT1
[2] = target: DLG2_2, Q15700
[3] = target: DLG1_1, Q12959
[4] = target: T1, HTRA3, P83110
T1 sequence (P83110 354-453, limits assumed, looked up): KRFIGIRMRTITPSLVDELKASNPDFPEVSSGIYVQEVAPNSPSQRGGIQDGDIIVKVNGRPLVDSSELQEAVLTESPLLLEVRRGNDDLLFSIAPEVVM

[5] = target: T2, MPDZ_5, O75970
T2 sequence (O75970 695-796, limits assumed, looked up): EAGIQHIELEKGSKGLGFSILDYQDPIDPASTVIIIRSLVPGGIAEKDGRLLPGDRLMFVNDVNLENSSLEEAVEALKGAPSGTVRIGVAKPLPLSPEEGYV

[6] = target: T3, NHERF3_3, Q5T2W1
T3 sequence (Q5T2W1 238-333, limits assumed, looked up): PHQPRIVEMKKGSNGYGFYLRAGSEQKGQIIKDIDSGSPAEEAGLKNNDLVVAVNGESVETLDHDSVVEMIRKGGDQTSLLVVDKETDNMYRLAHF

[7] = target: T4, APBA3_1, O96018
T4 sequence (O96018 389-490, limits assumed, looked up): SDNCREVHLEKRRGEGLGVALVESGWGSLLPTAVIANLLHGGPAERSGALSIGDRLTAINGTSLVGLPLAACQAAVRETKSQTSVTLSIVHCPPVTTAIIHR

[8] = target: GRIP2_7, Q9C0E4
[9] = target: T5, LIN7C, Q9NUP9
T5 sequence (Q9NUP9 88-185, limits assumed, looked up): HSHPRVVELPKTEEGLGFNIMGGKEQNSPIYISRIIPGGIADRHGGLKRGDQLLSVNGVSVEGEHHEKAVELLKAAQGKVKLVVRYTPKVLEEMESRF

[10] = target: T6, PDZD7_3, Q9H5P4
T6 sequence (Q9H5P4 857-944, limits assumed, looked up): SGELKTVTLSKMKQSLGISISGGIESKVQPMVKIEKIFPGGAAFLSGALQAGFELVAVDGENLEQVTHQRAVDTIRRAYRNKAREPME

[11] = target: Inadl_10, Q8NI35
[12] = target: PDLIM1, O00151
[13] = target: T7, GRIP1_4, Q9Y3R0
T7 sequence (Q9Y3R0 467-571, limits assumed, looked up): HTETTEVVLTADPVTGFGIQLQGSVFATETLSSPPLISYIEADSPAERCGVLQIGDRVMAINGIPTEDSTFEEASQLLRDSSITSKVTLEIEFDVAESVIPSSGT

[14] = target: DLG4_3, P78352
[15] = target: DLG4_2, P78352
[16] = target: Inadl_5, Q8NI35
[17] = target: ARHGEF12, Q9NZN5-2
[18] = target: T8, APBA2_2, Q99767
T8 sequence (Q99767 654-744, limits assumed, looked up): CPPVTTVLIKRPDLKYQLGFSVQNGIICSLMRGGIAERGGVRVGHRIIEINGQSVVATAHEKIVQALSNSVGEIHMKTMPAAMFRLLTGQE

[19] = target: T9, LIN7B, Q9HAP6
T9 sequence (Q9HAP6 88-185, limits assumed, looked up): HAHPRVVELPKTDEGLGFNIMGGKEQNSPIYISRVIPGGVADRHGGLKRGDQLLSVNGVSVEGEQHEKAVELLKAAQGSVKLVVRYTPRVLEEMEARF

[20] = target: IL16_4, Q14005
[21] = target: AHNAK1, Q09666
[22] = target: IL16_1, Q14005
[23] = target: PDZRN4_1, Q6ZMN7
[24] = target: MAGI2_4, Q86UL8
[25] = target: FRMPD3, Q5JV73
[26] = target: MAGI2_3, Q86UL8
[27] = target: LNX1_3, Q8TBB1
[28] = target: LDB3, O75112
[29] = target: HTRA1, Q92743
Chain of HTRA1, Q92743 (Q92743 360-477): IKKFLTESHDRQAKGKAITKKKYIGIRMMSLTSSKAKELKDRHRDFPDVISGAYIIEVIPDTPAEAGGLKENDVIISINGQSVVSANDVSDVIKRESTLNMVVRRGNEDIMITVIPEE

Chain of MAGI2_3, Q86UL8 (Q86UL8 600-682): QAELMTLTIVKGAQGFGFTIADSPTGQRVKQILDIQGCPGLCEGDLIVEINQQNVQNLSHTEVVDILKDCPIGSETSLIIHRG
Chain of Inadl_10, Q8NI35 (Q8NI35 1673-1763): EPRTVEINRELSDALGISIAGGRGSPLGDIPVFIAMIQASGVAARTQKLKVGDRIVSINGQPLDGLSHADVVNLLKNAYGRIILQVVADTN
Chain of MAGI2_4, Q86UL8 (Q86UL8 772-865): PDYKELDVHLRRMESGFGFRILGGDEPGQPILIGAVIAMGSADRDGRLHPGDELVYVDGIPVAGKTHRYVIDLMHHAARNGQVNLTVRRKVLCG
Chain of PDZRN4_1, Q6ZMN7 (Q6ZMN7 213-318): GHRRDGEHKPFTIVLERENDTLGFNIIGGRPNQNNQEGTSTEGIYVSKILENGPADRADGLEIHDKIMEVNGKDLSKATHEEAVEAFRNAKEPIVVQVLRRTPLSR
Chain of IL16_1, Q14005 (Q14005 210-306): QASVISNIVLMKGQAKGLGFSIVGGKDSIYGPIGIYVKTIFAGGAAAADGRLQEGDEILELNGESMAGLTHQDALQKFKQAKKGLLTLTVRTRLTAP
Chain of PDLIM1, O00151 (O00151 1-87): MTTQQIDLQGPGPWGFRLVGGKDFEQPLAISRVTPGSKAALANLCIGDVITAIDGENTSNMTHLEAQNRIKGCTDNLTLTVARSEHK
Chain of GRIP2_7, Q9C0E4 (Q9C0E4 934-1023): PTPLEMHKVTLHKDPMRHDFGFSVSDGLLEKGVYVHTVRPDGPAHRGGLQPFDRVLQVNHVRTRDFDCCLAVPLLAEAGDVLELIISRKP
Chain of AHNAK1, Q09666 (Q09666 4-100): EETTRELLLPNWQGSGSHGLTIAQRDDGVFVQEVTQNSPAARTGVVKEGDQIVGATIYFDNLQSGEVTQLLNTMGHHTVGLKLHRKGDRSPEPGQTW
Chain of ARHGEF12, Q9NZN5-2 (Q9NZN5 other isoform, or with tags, fused parts or gaps): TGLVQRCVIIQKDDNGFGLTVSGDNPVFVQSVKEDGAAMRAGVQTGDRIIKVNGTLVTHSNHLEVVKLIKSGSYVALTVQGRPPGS
Chain of LDB3, O75112 (O75112 1-94): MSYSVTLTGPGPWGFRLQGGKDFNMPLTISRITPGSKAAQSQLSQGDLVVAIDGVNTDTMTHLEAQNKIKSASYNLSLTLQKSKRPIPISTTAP
Chain of DLG2_2, Q15700 (Q15700 189-283): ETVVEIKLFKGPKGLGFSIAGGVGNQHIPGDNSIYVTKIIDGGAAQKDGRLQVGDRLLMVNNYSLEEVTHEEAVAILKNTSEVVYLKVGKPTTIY
Chain of Inadl_5, Q8NI35 (Q8NI35 673-780): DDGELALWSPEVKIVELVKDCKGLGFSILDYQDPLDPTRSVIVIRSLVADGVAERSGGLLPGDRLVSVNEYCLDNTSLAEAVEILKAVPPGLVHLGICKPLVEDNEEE
Chain of LNX1_3, Q8TBB1 (Q8TBB1 500-596): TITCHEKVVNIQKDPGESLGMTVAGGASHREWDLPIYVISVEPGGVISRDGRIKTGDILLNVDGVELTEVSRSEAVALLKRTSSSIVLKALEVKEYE
Chain of IL16_4, Q14005 (Q14005 1229-1329): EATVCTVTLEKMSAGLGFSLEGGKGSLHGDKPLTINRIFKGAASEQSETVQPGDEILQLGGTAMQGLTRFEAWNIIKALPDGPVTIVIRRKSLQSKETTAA
Chain of LAP2, Q96RT1 (Q96RT1 other isoform, or with tags, fused parts or gaps): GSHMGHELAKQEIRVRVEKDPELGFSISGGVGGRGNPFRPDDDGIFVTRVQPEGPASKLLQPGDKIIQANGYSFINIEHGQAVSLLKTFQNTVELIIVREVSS
Chain of DLG4_2, P78352 (P78352 155-259): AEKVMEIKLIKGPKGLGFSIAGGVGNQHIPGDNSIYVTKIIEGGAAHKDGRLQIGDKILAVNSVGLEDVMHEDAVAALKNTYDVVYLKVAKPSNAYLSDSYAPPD
Chain of FRMPD3, Q5JV73 (Q5JV73 12-100): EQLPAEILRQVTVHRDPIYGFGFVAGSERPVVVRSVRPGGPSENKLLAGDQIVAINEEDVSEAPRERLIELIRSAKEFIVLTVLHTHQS
Chain of DLG4_3, P78352 (P78352 306-403): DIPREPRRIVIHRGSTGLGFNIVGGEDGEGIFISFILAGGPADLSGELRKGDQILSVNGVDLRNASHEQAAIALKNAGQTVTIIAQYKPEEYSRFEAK

Binder: TGPWKNETTV [ADGRA1, Q86SQ6]
- pKd [1]: 3.84
- pKd [2]: 5.1
- pKd [3]: 4.82
- pKd [4]: below the threshold
- pKd [5]: below the threshold
- pKd [6]: below the threshold
- pKd [7]: below the threshold
- pKd [8]: below the threshold
- pKd [9]: 4.27
- pKd [10]: 4.9
- pKd [11]: below the threshold
- pKd [12]: below the threshold
- pKd [13]: below the threshold
- pKd [14]: 4.61
- pKd [15]: 5.08
- pKd [16]: below the threshold
- pKd [17]: 4.05
- pKd [18]: below the threshold
- pKd [19]: 3.54
- pKd [20]: below the threshold
- pKd [21]: below the threshold
- pKd [22]: 3.83
- pKd [23]: 4.31
- pKd [24]: 4.74
- pKd [25]: below the threshold
- pKd [26]: 3.94
- pKd [27]: below the threshold
- pKd [28]: below the threshold
- pKd [29]: 4.26

Binder: REKKFFCTIL [GNG4, P50150]
- pKd [1]: 3.79
- pKd [2]: 3.97
- pKd [3]: 4.23
- pKd [4]: 3.78
- pKd [5]: below the threshold
- pKd [6]: 3.5
- pKd [7]: below the threshold
- pKd [8]: below the threshold
- pKd [9]: below the threshold
- pKd [10]: 5.44
- pKd [11]: 4.26
- pKd [12]: below the threshold
- pKd [13]: 3.56
- pKd [14]: 4.17
- pKd [15]: 3.95
- pKd [16]: below the threshold
- pKd [17]: 5.87
- pKd [18]: 3.47
- pKd [19]: 3.97
- pKd [20]: 3.49
- pKd [21]: below the threshold
- pKd [22]: 3.67
- pKd [23]: 4.19
- pKd [24]: 4.26
- pKd [25]: below the threshold
- pKd [26]: below the threshold
- pKd [27]: 3.95
- pKd [28]: below the threshold
- pKd [29]: 5.48

The remaining lines, values ahead:

- pKd [1]: below the threshold
- pKd [2]: 4.39
- pKd [3]: 4.08
- pKd [4]: 3.64
- pKd [5]: below the threshold
- pKd [6]: below the threshold
- pKd [7]: below the threshold
- pKd [8]: below the threshold
- pKd [9]: below the threshold
- pKd [10]: below the threshold
- pKd [11]: below the threshold
- pKd [12]: below the threshold
- pKd [13]: below the threshold
- pKd [14]: below the threshold
- pKd [15]: 4.71
- pKd [16]: below the threshold
- pKd [17]: 3.81
- pKd [18]: below the threshold
- pKd [19]: 3.72
- pKd [20]: below the threshold
- pKd [21]: below the threshold
- pKd [22]: 4.13
- pKd [23]: below the threshold
- pKd [24]: below the threshold
- pKd [25]: below the threshold
- pKd [26]: 3.77
- pKd [27]: below the threshold
- pKd [28]: below the threshold
- pKd [29]: 4
Binder: RRLQGTSSMV [GOLT1A, Q6ZVE7]

- pKd [1]: 3.74
- pKd [2]: below the threshold
- pKd [3]: below the threshold
- pKd [4]: below the threshold
- pKd [5]: below the threshold
- pKd [6]: below the threshold
- pKd [7]: below the threshold
- pKd [8]: below the threshold
- pKd [9]: 3.95
- pKd [10]: below the threshold
- pKd [11]: below the threshold
- pKd [12]: below the threshold
- pKd [13]: below the threshold
- pKd [14]: below the threshold
- pKd [15]: below the threshold
- pKd [16]: below the threshold
- pKd [17]: below the threshold
- pKd [18]: below the threshold
- pKd [19]: below the threshold
- pKd [20]: below the threshold
- pKd [21]: below the threshold
- pKd [22]: below the threshold
- pKd [23]: below the threshold
- pKd [24]: below the threshold
- pKd [25]: below the threshold
- pKd [26]: below the threshold
- pKd [27]: below the threshold
- pKd [28]: below the threshold
- pKd [29]: below the threshold
Binder: DHLGGGGESM [TNRC6A, Q8NDV7]

- pKd [1]: below the threshold
- pKd [2]: below the threshold
- pKd [3]: below the threshold
- pKd [4]: 4.24
- pKd [5]: below the threshold
- pKd [6]: below the threshold
- pKd [7]: below the threshold
- pKd [8]: below the threshold
- pKd [9]: below the threshold
- pKd [10]: below the threshold
- pKd [11]: below the threshold
- pKd [12]: below the threshold
- pKd [13]: below the threshold
- pKd [14]: below the threshold
- pKd [15]: 3.76
- pKd [16]: below the threshold
- pKd [17]: 4.95
- pKd [18]: below the threshold
- pKd [19]: 3.86
- pKd [20]: below the threshold
- pKd [21]: below the threshold
- pKd [22]: below the threshold
- pKd [23]: below the threshold
- pKd [24]: below the threshold
- pKd [25]: below the threshold
- pKd [26]: below the threshold
- pKd [27]: below the threshold
- pKd [28]: below the threshold
- pKd [29]: 3.69
Binder: ALPLPQSSTC [IGF1R, P08069]

Reference: PMC9482650, “Quantitative fragmentomics allow affinity mapping of interactomes” (Nature Communications, 2022)
